Where a chain is given by its changes, count along the chain named. Names may count otherwise. “Also recorded” adds a separate entry of the source.
Columns and labels:
EHMT1 WT = molecular target: T1, EHMT1 WT (Homo sapiens, UniProt Q9H9B1); test: Trp fluorescence quenching titration of dimethylated histone H3 Lys9 peptide, WT EHMT1; format: binding; conditions: WT EHMT1 1 μM; stepwise addition of peptide (36.3 μM); 2 min equilibration; 20 °C; λEx 295 nm, λEm 350 nm; midpoint of logistic function with Hill slope; read-out: apparent affinity
T1 construct: WT and p.P809L EHMT1 variant ankyrin domains expressed from Escherichia coli; His6 (N); made in house; host or cells: E. coli BL21 (DE3), pET vector
T1 sequence (Q9H9B1 765-1001 limits assumed): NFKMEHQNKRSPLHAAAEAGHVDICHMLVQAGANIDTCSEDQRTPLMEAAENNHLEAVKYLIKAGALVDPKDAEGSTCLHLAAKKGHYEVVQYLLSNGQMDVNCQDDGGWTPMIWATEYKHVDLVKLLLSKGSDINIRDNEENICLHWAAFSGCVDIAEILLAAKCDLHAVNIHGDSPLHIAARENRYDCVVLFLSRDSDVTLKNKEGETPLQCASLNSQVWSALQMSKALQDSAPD
Description: (§1) Circular dichroism spectra (Fig. 7, left panel) were recorded to study the effect of the p.P809L mutation on the secondary structure of EHMT1 and confirm the in silico predictions that the p.P809L variant causes abnormal protein folding. The far UV CD spectrum of EHMT1 is dominated by the α-helical content of the protein showing two characteristic minima at 222 and 208 nm. […] Lastly, because the ankyrin repeat domain of the EHMT1 is critical for binding to methylated histones to regulate gene expression, we also studied the interaction of EHMT1 and the p.P809L mutation with its dimethylated target, the histone H3K9 peptide, by monitoring the Trp fluorescence emission at 350 nm after excitation at 295 nm (Fig. 9, left panel).
FIGURE 9. Interaction of EHMT1 with the dimethylated histone H3 Lys^9 peptide. […] The change in fluorescence intensity was followed at λEm = 350 nm after excitation at λEx = 295 nm. […]
For experimental purposes, we produced and purified an N-terminal His6-tagged recombinant form of WT and the p.P809L EHMT1 proteins using the pET vector system (Novagen). […] Spectra in the far UV range (200–260 nm) for WT and p.P809L EHMT1 were recorded on an Aviv Biomedical Model 420SF circular dichroism spectrometer. […] Fluorescence measurements were performed at 20 °C on a Horiba Jobin-Yvon Fluorolog 3 spectrofluorometer equipped with a Wavelength Electronics LF1-3751 temperature controller. […]

[1] = p.P81L mutation in TPLX motif of p16; cited from earlier work
From the text: (§2) Nevertheless, our study is the first to describe how mutations in any of the TPLX motifs of the EHMT1 ankyrin domain affect protein folding to induce a moderate change in its affinity for the H3K9me2 peptide. Thus, it becomes important to compare this information to other, better characterized mutations in ankyrin repeats that are known to be pathogenic in humans. […] Thus, this type of mutation ( ...

CDK4 = conditions: non-quantitative two-hybrid GAL4-based reporter assay; cited from earlier work
From the text: as §2

[2] = intrinsic protein fluorescence emission spectra; format: physicochemical; conditions: protein 1 μM, 20 °C; for λmax of fluorescence emission: excitation 280 and 295 nm, emission 310-440 nm
Description: as §1
FIGURE 8. Fluorescence emission spectra of WT EHMT1 and of p.P809L. Fluorescence emission spectra of WT EHMT1 (solid symbols and bars) and of p.P809L (open symbols and bars) were obtained. Spectra were recorded at 20 °C using a protein concentration of 1 μM. The excitation wavelengths (λEx) were 280 nm (circles; excitation of Trp and Tyr residues) and 295 nm (squares; selective excitation of Trp residues). […]
For experimental purposes, we produced and purified an N-terminal His6-tagged recombinant form of WT and the p.P809L EHMT1 proteins using the pET vector system (Novagen). […] Spectra in the far UV range (200–260 nm) for WT and p.P809L EHMT1 were recorded on an Aviv Biomedical Model 420SF circular dichroism spectrometer. […] Fluorescence measurements were performed at 20 °C on a Horiba Jobin-Yvon Fluorolog 3 spectrofluorometer equipped with a Wavelength Electronics LF1-3751 temperature controller. Fluorescence emission spectra of both proteins were recorded between 310 and 440 nm after excitation at 280 or 295 nm using a protein concentration of 1 μM in a 1-cm quartz cell. […] After equilibration for 2 min, the fluorescence signal was recorded and averaged for 20 s using an excitation wavelength of 295 nm for the selective excitation of Trp residues and an emission wavelength of 350 nm. […]

[3] = far UV circular dichroism spectroscopy; format: physicochemical; conditions: far UV CD 200–260 nm, 20 °C; Bestsel deconvolution; compared with WT
Description: as §1
FIGURE 7. Impact of the p. P809L mutation on secondary structure. Left panel, far UV CD spectra of WT EHMT1 (●) and of p.P809L (○) were recorded at 20 °C, corrected by the signal of the buffer, and converted to mean ellipticity per amino acid residue (ϴ^MRW). […]
For experimental purposes, we produced and purified an N-terminal His6-tagged recombinant form of WT and the p.P809L EHMT1 proteins using the pET vector system (Novagen). […] Spectra in the far UV range (200–260 nm) for WT and p.P809L EHMT1 were recorded on an Aviv Biomedical Model 420SF circular dichroism spectrometer. […]

With “H3K9me2 peptide: dimethylated histone H3 Lys^9 peptide” the Kd (EHMT1 WT) was 760 nM.

B1: p.P81L p16: p.P81L mutation in the TPLX motif within the ankyrin repeat of the tumor suppressor p16 (protein, UniProt P42771 1-156, looked up, variant P81L)
Cyclin-dependent kinase …: MEPAAGSSMEPSADWLATAAARGRVEEVRALLEAGALPNAPNSYGRRPIQVMMMGSARVAELLLLHGAEPNCADPATLTRLVHDAAREGFLDTLVVLHRAGARLDVRDAWGRLPVDLAEELGHRDVARYLRAAAGGTRGSNHARIDAAEGPSDIPD
For B1, the secondary structure [1] is listed as “secondary structure alterations” and the “interaction with CDK4” value (CDK4) is listed as “impaired interaction with CDK4”.

B2: WT EHMT1: N-terminal His6-tagged recombinant form of WT EHMT1 (protein, UniProt Q9H9B1 2-1298, looked up)
Histone-lysine …: AAADAEAVPARGEPQQDCCVKTELLGEETPMAADEGSAEKQAGEAHMAADGETNGSCENSDASSHANAAKHTQDSARVNPQDGTNTLTRIAENGVSERDSEAAKQNHVTADDFVQTSVIGSNGYILNKPALQAQPLRTTSTLASSLPGHAAKTLPGGAGKGRTPSAFPQTPAAPPATLGEGSADTEDRKLPAPGADVKVHRARKTMPKSVVGLHAASKDPREVREARDHKEPKEEINKNISDFGRQQLLPPFPSLHQSLPQNQCYMATTKSQTACLPFVLAAAVSRKKKRRMGTYSLVPKKKTKVLKQRTVIEMFKSITHSTVGSKGEKDLGASSLHVNGESLEMDSDEDDSEELEEDDGHGAEQAAAFPTEDSRTSKESMSEADRAQKMDGESEEEQESVDTGEEEEGGDESDLSSESSIKKKFLKRKGKTDSPWIKPARKRRRRSRKKPSGALGSESYKSSAGSAEQTAPGDSTGYMEVSLDSLDLRVKGILSSQAEGLANGPDVLETDGLQEVPLCSCRMETPKSREITTLANNQCMATESVDHELGRCTNSVVKYELMRPSNKAPLLVLCEDHRGRMVKHQCCPGCGYFCTAGNFMECQPESSISHRFHKDCASRVNNASYCPHCGEESSKAKEVTIAKADTTSTVTPVPGQEKGSALEGRADTTTGSAAGPPLSEDDKLQGAASHVPEGFDPTGPAGLGRPTPGLSQGPGKETLESALIALDSEKPKKLRFHPKQLYFSARQGELQKVLLMLVDGIDPNFKMEHQNKRSPLHAAAEAGHVDICHMLVQAGANIDTCSEDQRTPLMEAAENNHLEAVKYLIKAGALVDPKDAEGSTCLHLAAKKGHYEVVQYLLSNGQMDVNCQDDGGWTPMIWATEYKHVDLVKLLLSKGSDINIRDNEENICLHWAAFSGCVDIAEILLAAKCDLHAVNIHGDSPLHIAARENRYDCVVLFLSRDSDVTLKNKEGETPLQCASLNSQVWSALQMSKALQDSAPDRPSPVERIVSRDIARGYERIPIPCVNAVDSEPCPSNYKYVSQNCVTSPMNIDRNITHLQYCVCIDDCSSSNCMCGQLSMRCWYDKDGRLLPEFNMAEPPLIFECNHACSCWRNCRNRVVQNGLRARLQLYRTRDMGWGVRSLQDIPPGTFVCEYVGELISDSEADVREEDSYLFDLDNKDGEVYCIDARFYGNVSRFINHHCEPNLVPVRVFMAHQDLRFPRIAFFSTRLIEAGEQLGFDYGERFWDIKGKLFSCRCGSPKCRHSSAALAQRQASAAQEAQEDGLPDTSSAAAADPL
modifications: N-terminal His6 tag
In the case of B2, the “λmax of fluorescence emission” value [2] is reported as ~350 nm.

B3: p.P809L: N-terminal His6-tagged recombinant p.P809L EHMT1 variant (c.2426C>T) (protein, UniProt Q9H9B1 2-1298, looked up, variant P809L)
Histone-lysine …: B2 Histone-lysine … with P808L
modifications: N-terminal His6 tag
With B3 the “fluorescence emission (intensity)” value ([2]; compared with wild type protein) was “decrease of the fluorescence emission”, the “λmax of fluorescence emission” value [2] was 347 nm and the α-helical content [3] was “reduced α-helical content; also recorded: decrease in the α-helical content”.
